For data set [1], the system named is HeLa Kyoto. In words: thermal stability score vs G1/S (z-score of summed log2 fold changes over temperatures); higher = more thermally stable than in G1/S.
The subject of data set [2] is HeLa Kyoto. Nature of the data set: solubility change mitosis vs G1/S (difference of NP-40 vs SDS log2 ratios) (log2 ratio difference); higher = more soluble in mitosis.
For data set [3], the system named is HeLa Kyoto. In words: solubility in G1/S (NP-40 vs SDS abundance) (log2 ratio); higher = more soluble. Conditions: cell cycle stage: G1/S.
Data set [4] relates to HeLa Kyoto. In words: melting temperature (median over replicates), in situ; higher = more thermally stable.
[5] abbreviates: cell cycle stage: early G1 (4.5 h after nocodazole release).
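Wherever melting temperature (median over replicates), in situ is given: HeLa Kyoto cells synchronized by double thymidine or nocodazole block, proteins quantified by TMT10plex mass spectrometry, three independent biological replicates.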
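Wherever solubility change mitosis vs G1/S (difference of NP-40 vs SDS log2 ratios) is given: synchronized HeLa Kyoto cells (double thymidine block for G1/S, nocodazole release for mitosis), protein amounts in NP-40 versus SDS lysates quantified by mass spectrometry, three biological replicates.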
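Wherever solubility in G1/S (NP-40 vs SDS abundance) is given: HeLa Kyoto cells arrested at G1/S by double thymidine block, proteins quantified by TMT10plex mass spectrometry in mild NP-40 versus SDS extracts, three biological replicates.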
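Wherever thermal stability score vs G1/S (z-score of summed log2 fold changes over temperatures) is given: synchronized HeLa Kyoto cells, proteins quantified by TMT10plex mass spectrometry, three biological replicates, mitosis taken 0.5 h after nocodazole release, G1/S directly after double thymidine block.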

Turning to “MPPSGPRGTLLLLPLLLLLLLRAVLAVPLERGAPNKEETPATESPDTGLYYHRYLQEVIDVLETDGHFREKLQAANAEDIKSGKLSRELDFVSHHVRTKLDELKRQEVSRLRMLLKAKMDAEQDPNVQVDHLNLLKQFEHLDPQNQHTFEARDLELLIQTATRDLAQYDAAHHEEFKRYEMLKEHERRRYLESLGEEQRKEAERKLEEQQRRHREHPKVNVPGSQAQLKEVWEELDGLDPNRFNPKTFFILHDINSDGVLDEQELEALFTKELEKVYDPKNEEDDMREMEEERLRMREHVMKNVDTNQDRLVTLEEFLASTQRKEFGDTGEGWETVEMHPAYTEEELRRFEEELAAREAELNAKAQRLSQETEALGRSQGRLEAQKRELQQAVLHMEQRKQQQQQQQGHKAPAAHPEGQLKFHPDTDDVPVPAPAGDQKEVDTSEKKLLERLPEVEVPQHL [NUCB1]”, the figures for the thermal stability score in data set [1] (setting [5]) and in data set [1] (cell cycle stage: mitosis) were -3.73 and -4.26, respectively. For the same sequence, the “solubility change mitosis (log2)” value in data set [2] came to 0.0913. In data set [3], the “solubility in G1/S (log2)” value came out at 0.717. Moreover, the melting temperature in data set [4] (cell cycle stage: G1/S) is 54.5 °C; in data set [4] (cell cycle stage: mitosis) it was 54.7 °C.
On to “MPRIMIKGGVWRNTEDEILKAAVMKYGKNQWSRIASLLHRKSAKQCKARWYEWLDPSIKKTEWSREEEEKLLHLAKLMPTQWRTIAPIIGRTAAQCLEHYEFLLDKAAQRDNEEETTDDPRKLKPGEIDPNPETKPARPDPIDMDEDELEMLSEARARLANTQGKKAKRKAREKQLEEARRLAALQKRRELRAAGIEIQKKRKRKRGVDYNAEIPFEKKPALGFYDTSEENYQALDADFRKLRQQDLDGELRSEKEGRDRKKDKQHLKRKKESDLPSAILQTSGVSEFTKKRSKLVLPAPQISDAELQEVVKVGQASEIARQTAEESGITNSASSTLLSEYNVTNNSVALRTPRTPASQDRILQEAQNLMALTNVDTPLKGGLNTPLHESDFSGVTPQRQVVQTPNTVLSTPFRTPSNGAEGLTPRSGTTPKPVINSTPGRTPLRDKLNINPEDGMADYSDPSYVKQMERESREHLRLGLLGLPAPKNDFEIVLPENAEKELEEREIDDTYIEDAADVDARKQAIRDAERVKEMKRMHKAVQKDLPRPSEVNETILRPLNVEPPLTDLQKSEELIKKEMITMLHYDLLHHPYEPSGNKKGKTVGFGTNNSEHITYLEHNPYEKFSKEELKKAQDVLVQEMEVVKQGMSHGELSSEAYNQVWEECYSQVLYLPGQSRYTRANLASKKDRIESLEKRLEINRGHMTTEAKRAAKMEKKMKILLGGYQSRAMGLMKQLNDLWDQIEQAHLELRTFEELKKHEDSAIPRRLECLKEDVQRQQEREKELQHRYADLLLEKETLKSKF [CDC5L]”, for which the thermal stability score came out at 3.11 in data set [1] (setting [5]) and 6.1 in data set [1] (cell cycle stage: mitosis). For the same sequence, the “solubility change mitosis (log2)” value in data set [2] is 0.483. The “solubility in G1/S (log2)” value in data set [3] was -0.778. The results for the melting temperature in data set [4] (cell cycle stage: G1/S) and in data set [4] (cell cycle stage: mitosis) were 47.5 °C and 48.7 °C, respectively.
Consider “MPRKRKCDLRAVRVGLLLGGGGVYGSRFRFTFPGCRALSPWRVRVQRRRCEMSTMFADTLLIVFISVCTALLAEGITWVLVYRTDKYKRLKAEVEKQSKKLEKKKETITESAGRQQKKKIERQEEKLKNNNRDLSMVRMKSMFAIGFCFTALMGMFNSIFDGRVVAKLPFTPLSYIQGLSHRNLLGDDTTDCSFIFLYILCTMSIRQNIQKILGLAPSRAATKQAGGFLGPPPPSGKFS [TMCO1]”, for which the thermal stability score was -0.0145 in data set [1] (setting [5]) and -0.0344 in data set [1] (cell cycle stage: mitosis). For the same sequence, the “solubility change mitosis (log2)” value in data set [2] was 0.0683. For the same sequence, the “solubility in G1/S (log2)” value in data set [3] was -0.0501. For the same sequence, the melting temperature amounted to 53.7 °C in data set [4] (cell cycle stage: G1/S) and 54.1 °C in data set [4] (cell cycle stage: mitosis).
Turning to “MPSASCDTLLDDIEDIVSQEDSKPQDRHFVRKDVVPKVRRRNTQKYLQEEENSPPSDSTIPGIQKIWIRTWGCSHNNSDGEYMAGQLAAYGYKITENASDADLWLLNSCTVKNPAEDHFRNSIKKAQEENKKIVLAGCVPQAQPRQDYLKGLSIIGVQQIDRVVEVVEETIKGHSVRLLGQKKDNGRRLGGARLDLPKIRKNPLIEIISINTGCLNACTYCKTKHARGNLASYPIDELVDRAKQSFQEGVCEIWLTSEDTGAYGRDIGTNLPTLLWKLVEVIPEGAMLRLGMTNPPYILEHLEEMAKILNHPRVYAFLHIPVQSASDSVLMEMKREYCVADFKRVVDFLKEKVPGITIATDIICGFPGETDQDFQETVKLVEEYKFPSLFINQFYPRPGTPAAKMEQVPAQVKKQRTKDLSRVFHSYSPYDHKIGERQQVLVTEESFDSKFYVAHNQFYEQVLVPKNPAFMGKMVEVDIYESGKHFMKGQPVSDAKVYTPSISKPLAKGEVSGLTKDFRNGLGNQLSSGSHTSAASQCDSASSRMVLPMPRLHQDCALRMSVGLALLGLLFAFFVKVYN [CDKAL1]”, the thermal stability score was -2.9 in data set [1] (setting [5]) and -1 in data set [1] (cell cycle stage: mitosis). In data set [2], the “solubility change mitosis (log2)” value is -0.00551. In data set [3], the “solubility in G1/S (log2)” value was 0.0175. For the same sequence, the melting temperature in data set [4] (cell cycle stage: G1/S) is 51.2 °C; in data set [4] (cell cycle stage: mitosis), 50.7 °C.
For the sequence “MPSDLAKKKAAKKKEAAKARQRPRKGHEENGDVVTEPQVAEKNEANGRETTEVDLLTKELEDFEMKKAAARAVTGVLASHPNSTDVHIINLSLTFHGQELLSDTKLELNSGRRYGLIGLNGIGKSMLLSAIGKREVPIPEHIDIYHLTREMPPSDKTPLHCVMEVDTERAMLEKEAERLAHEDAECEKLMELYERLEELDADKAEMRASRILHGLGFTPAMQRKKLKDFSGGWRMRVALARALFIRPFMLLLDEPTNHLDLDACVWLEEELKTFKRILVLVSHSQDFLNGVCTNIIHMHNKKLKYYTGNYDQYVKTRLELEENQMKRFHWEQDQIAHMKNYIARFGHGSAKLARQAQSKEKTLQKMMASGLTERVVSDKTLSFYFPPCGKIPPPVIMVQNVSFKYTKDGPCIYNNLEFGIDLDTRVALVGPNGAGKSTLLKLLTGELLPTDGMIRKHSHVKIGRYHQHLQEQLDLDLSPLEYMMKCYPEIKEKEEMRKIIGRYGLTGKQQVSPIRNLSDGQKCRVCLAWLAWQNPHMLFLDEPTNHLDIETIDALADAINEFEGGMMLVSHDFRLIQQVAQEIWVCEKQTITKWPGDILAYKEHLKSKLVDEEPQLTKRTHNV [ABCF2]”, the results for the thermal stability score in data set [1] (setting [5]) and in data set [1] (cell cycle stage: mitosis) were 1.11 and 0.19, respectively. Further, the “solubility change mitosis (log2)” value in data set [2] amounted to 0.116. For the same sequence, the “solubility in G1/S (log2)” value in data set [3] is -0.296. Further, the melting temperature in data set [4] (cell cycle stage: G1/S) came to 51.8 °C; in data set [4] (cell cycle stage: mitosis), 51.2 °C.
Regarding “MPSLLVLTFSPCVLLGWALLAGGTGGGGVGGGGGGAGIGGGRQEREALPPQKIEVLVLLPQDDSYLFSLTRVRPAIEYALRSVEGNGTGRRLLPPGTRFQVAYEDSDCGNRALFSLVDRVAAARGAKPDLILGPVCEYAAAPVARLASHWDLPMLSAGALAAGFQHKDSEYSHLTRVAPAYAKMGEMMLALFRHHHWSRAALVYSDDKLERNCYFTLEGVHEVFQEEGLHTSIYSFDETKDLDLEDIVRNIQASERVVIMCASSDTIRSIMLVAHRHGMTSGDYAFFNIELFNSSSYGDGSWKRGDKHDFEAKQAYSSLQTVTLLRTVKPEFEKFSMEVKSSVEKQGLNMEDYVNMFVEGFHDAILLYVLALHEVLRAGYSKKDGGKIIQQTWNRTFEGIAGQVSIDANGDRYGDFSVIAMTDVEAGTQEVIGDYFGKEGRFEMRPNVKYPWGPLKLRIDENRIVEHTNSSPCKSSGGLEESAVTGIVVGALLGAGLLMAFYFFRKKYRITIERRTQQEESNLGKHRELREDSIRSHFSVA [NPR3]”, the thermal stability score was -4.69 in data set [1] (setting [5]) and -4.35 in data set [1] (cell cycle stage: mitosis). In addition, the “solubility change mitosis (log2)” value in data set [2] was -0.0686. Further, the “solubility in G1/S (log2)” value in data set [3] turned out to be 0.0598. For the same sequence, the results for the melting temperature in data set [4] (cell cycle stage: G1/S) and in data set [4] (cell cycle stage: mitosis) were 53.9 °C and 54.4 °C, respectively.

For the origin of these results see the supplement of paper PMC5998384.
